In patent US20250333501A1 (University of California, published 2025) one finds FACS fluorescence data, which are given here for 13 molecules.

For assay [1], the target named is T1, CLDN6 endogenously expressed by human cancer cell lines (ARK2, OVCA429) (human, UniProt P56747 1-220).
T1 construct: Untagged endogenous protein; also called Endogenous CLDN6+
T1 sequence: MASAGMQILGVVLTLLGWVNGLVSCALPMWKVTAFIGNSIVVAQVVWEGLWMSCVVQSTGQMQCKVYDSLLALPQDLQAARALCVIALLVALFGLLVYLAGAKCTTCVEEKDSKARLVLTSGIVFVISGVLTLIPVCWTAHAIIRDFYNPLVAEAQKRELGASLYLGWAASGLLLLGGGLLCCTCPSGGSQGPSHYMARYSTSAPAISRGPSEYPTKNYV
Put plainly: FACS, 1.5 µg Ab, OVCA429 cells.

Assay [2] has as its target T1, CLDN6 endogenously expressed by human …. Nature of the assay: FACS, 1.5 µg Ab, ARK2 cells. Here is the method:
(§1) FACS assays were also carried out to determine relative antigen binding strengths of the humanized antibodies (at either 1.5 μg or 0.3 μg) for binding to CLDN6 as expressed by the indicated cancer cell lines. 2nd Ab only was used as a negative control.
For orientation: In flow cytometry, cells or beads pass a laser one at a time.

The target in assay [3] is T2, human CLDN6 fused to GFP, expressed on engineered HEK293T cells (HEK293T-CLDN6-mGFP) (human, UniProt P56747 1-220).
T2 construct: It calls residues 1-21 a signal peptide; also called Claudin-6; HEK293T-CLDN6-mGFP Artificial CLDN6+; not shown: mGFP tag
T2 sequence: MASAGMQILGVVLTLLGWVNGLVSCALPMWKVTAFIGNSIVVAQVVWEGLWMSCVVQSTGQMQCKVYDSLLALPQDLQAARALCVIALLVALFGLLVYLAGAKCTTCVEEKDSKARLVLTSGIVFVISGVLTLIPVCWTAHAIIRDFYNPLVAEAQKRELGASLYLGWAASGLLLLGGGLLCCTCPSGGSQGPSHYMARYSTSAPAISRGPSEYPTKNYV
Nature of the assay: FACS, 1.5 µg Ab, 293T clone with human CLDN6. The method, boiled down: (§2)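 Humanized antibodies were tested by flow cytometry, essentially as in the source's direct-binding protocol, on engineered 293T clones expressing human CLDN6. Each antibody was used at 0.3 µg or 1.5 µg. In that protocol, EDTA-detached cells were incubated with Alexa Fluor 647 NHS ester-labelled antibody for 30 min on ice in the dark, washed and read on a BD Accuri C6 in channel FL4H. Fluorescence gives relative antigen binding strength.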

Assay [4] deals with T1, CLDN6 endogenously expressed by human …. Put plainly: FACS, 0.3 µg Ab, ARK2 cells. Here is the method: as §1
For assay [5], the target named is T2, human CLDN6 fused to GFP, expressed on …. Put plainly: FACS, 0.3 µg Ab, 293T clone with human CLDN6. The method, boiled down: as §2

B1: AB1-Chim (antibody, V domains shown)
VH: QVQLQQSAAELARPGASVKMSCKASGYTFTTYTMHWVKQRPGQGLEWIGFINPSSGYTDYNQKFKDRTTLTADKSSSTVYMQLSSLTSEDSAVYYCANGDYYVAYWGQGTLVTVSA
VL: QIVLTQSPAIMSASLGERVTMTCTASSSVSSTYFHWYQQKPGSSPKLWIYSTSNLASGVPRRFSGSASGTSYSLTISSMEAEDAATYYCHQYHRSPLTFGAGTKLELK
notes: 'chim' is the pre-humanized form (parental variable regions); also called pre-humanized (chimeric) form of AB1
In the case of B1, the FACS fluorescence stood at 177000 in assay [1]; 51900 in assay [2]; 364000 in assay [3]; 58800 in assay [4]; 312000 in assay [5].

B2: AB3-7 (antibody, V domains shown)
VH: EVQLLESGGGLVQPGGSMRLSCAASGFTFSNYWMNWVRQAPGKGLEWVAQIRLKSDNYATHYADSVKGRFTISRDDSKNTVYLQMNSLRAEDTGVYYCNDGPPSGSWGQGTLLTVSS
VL: DIQMTQSPSSLSASVGDRVTITCRISENIYSYLAWYQQKPGKAPKLLVYNAKILVEGVPSRFSGSGSGTDFTLTISSLQPEDFGTYYCQHHYTVPWTFGQGTKLEIK
notes: also called Humanized AB 3-7
As for B2, the FACS fluorescence came out at 90400 in assay [2], 169000 in assay [3], 36000 in assay [4] and 106000 in assay [5].

B3: AB1-7 (antibody, V domains shown)
VH: QVQLVQSGAEVKKPGASVKMSCKASGYTFTTYTMHWVRQAPGQGLEWIGFINPSSGYTDYAQKFQGRVTLTADTSTSTVYMELSSLRSEDTAVYYCANGDYYVAYWGQGTLVTVSS
VL: DIQLTQSPSSLSASVGDRVTMTCTASSSVSSTYFHWYQQKPGKAPKLLIYSTSNLASGVPSRFSGSGSGTDYTLTISSMQPEDAATYYCHQYHRSPLTFGQGTKLEIK
notes: Humanized; also called Humanized AB 1-7
B3: the FACS fluorescence in assay [1] stood at 44700; in assay [2] it was 11200; in assay [3], 207000; in assay [4] it was 4440; in assay [5] it was 79200.

B4: AB1-11 (antibody, V domains shown)
VH: QVQLVQSGAEVKKPGASVKMSCKASGYTFTTYTMHWVRQAPGQGLEWIGFINPSSGYTDYAQKFQGRVTLTADKSTSTVYMELSSLRSEDTAVYYCANGDYYVAYWGQGTLVTVSS
VL: DIQLTQSPSSLSASVGDRVTMTCTASSSVSSTYFHWYQQKPGKAPKLWIYSTSNLASGVPSRFSGSGSGTDYTLTISSMQPEDAATYYCHQYHRSPLTFGQGTKLEIK
notes: Humanized; also called Humanized AB 1-11
As for B4, the FACS fluorescence was 97700 in assay [2], 113000 in assay [3], 53900 in assay [4] and 64900 in assay [5].

B5: AB1-3 (antibody, V domains shown)
VH: QVQLVQSGAEVKKPGASVKVSCKASGYTFTTYTMHWVRQAPGQGLEWMGFINPSSGYTDYAQKFQGRVTMTADTSTSTVYMELSSLRSEDTAVYYCANGDYYVAYWGQGTLVTVSS
VL: DIQMTQSPSSLSASVGDRVTITCTASSSVSSTYFHWYQQKPGKAPKLLIYSTSNLASGVPSRFSGSGSGTDYTLTISSLQPEDFATYYCHQYHRSPLTFGQGTKLEIK
notes: also called Humanized AB 1-3
Take B5: the FACS fluorescence in assay [1] is 27500; in assay [2] it was 10800; in assay [3] it was 142000; in assay [4], 2830; in assay [5], 142000.

B6: AB1-4 (antibody, V domains shown)
VH: QVQLVQSGAEVKKPGASVKVSCKASGYTFTTYTMHWVRQAPGQGLEWMGFINPSSGYTDYAQKFQGRVTMTADTSTSTVYMELSSLRSEDTAVYYCANGDYYVAYWGQGTLVTVSS
VL: DIQLTQSPSSLSASVGDRVTMTCTASSSVSSTYFHWYQQKPGKAPKLLIYSTSNLASGVPSRFSGSGSGTDYTLTISSMQPEDAATYYCHQYHRSPLTFGQGTKLEIK
notes: also called Humanized AB 1-4
As for B6, the FACS fluorescence in assay [1] is 34600; in assay [2], 10000; in assay [3], 197000; in assay [4], 3640; in assay [5], 102000.

B7: AB4-6 (antibody, V domains shown)
VH: QVQLVQSGAEVKKPGASVKMSCKASGYTFTSYTMHWIRQAPGQGLEWIGYINPSSTYTHYAQKFQGRATLTADKSTSTAYMELSSLRSEDTAVYYCSRGELGGFAYWGQGTLVTVSS
VL: DVVMTQSPLSLPVTLGQPASISCRSSQSLVHSDGNTYLNWYQQRPGQSPRLLIYKVSNRFSGVPDRFSGSGSGTDFTLKISRVEAEDVGVYYCSQSTHVPYTFGQGTKLEIK
notes: also called Humanized AB 4-6
With B7, the FACS fluorescence in assay [2] worked out at 9840; in assay [3] it was 29200; in assay [4], 3300; in assay [5] it was 10800.

B8: AB4-10 (antibody, V domains shown)
VH: QVQLVQSGAEVKKPGASVKMSCKASGYTFTSYTMHWIRQAPGQGQEWIGYINPSSTYTHYIKKFKDRATLTADTSTSTAYMELSSLRSEDTAVYYCSRGELGGFAYWGQGTLVTVSS
VL: DVVMTQSPLSLPVTLGQPASISCRSSQSLVHSDGNTYLNWYQQRPGQSPRLLIYKVSNRFSGVPDRFSGSGSGTDFTLKISRVEAEDVGVYYCSQSTHVPYTFGQGTKLEIK
notes: Humanized; also called Humanized AB 4-10
Consider B8, for which the FACS fluorescence in assay [2] was found to be 20200; in assay [3], 77200; in assay [4], 7210; in assay [5], 50800.

B9: AB4-11 (antibody, V domains shown)
VH: QVQLVQSGAEVKKPGASVKMSCKASGYTFTSYTMHWIRQAPGQGLEWIGYINPSSTYTHYIKKFKDRATLTADKSTSTAYMELSSLRSEDTAVYYCSRGELGGFAYWGQGTLVTVSS
VL: DVVMTQSPLSLPVTLGQPASISCRSSQSLVHSDGNTYLNWYQQRPGQSPRLLIYKVSNRFSGVPDRFSGSGSGTDFTLKISRVEAEDVGVYYCSQSTHVPYTFGQGTKLEIK
notes: Humanized; also called Humanized AB 4-11
In the case of B9, the FACS fluorescence in assay [2] was determined as 9170; in assay [3], 61200; in assay [4] it was 6390; in assay [5], 37800.

B10: AB4-9 (antibody, V domains shown)
VH: QVQLVQSGAEVKKPGASVKMSCKASGYTFTSYTMHWIRQAPGQGLEWIGYINPSSTYTHYIKKFKDRATLTADTSTSTAYMELSSLRSEDTAVYYCSRGELGGFAYWGQGTLVTVSS
VL: DVVMTQSPLSLPVTLGQPASISCRSSQSLVHSDGNTYLNWYQQRPGQSPRLLIYKVSNRFSGVPDRFSGSGSGTDFTLKISRVEAEDVGVYYCSQSTHVPYTFGQGTKLEIK
notes: Humanized; also called Humanized AB 4-9
As to B10, the FACS fluorescence in assay [2] is 7790; in assay [3], 56900; in assay [4] it was 3060; in assay [5], 37200.

B11: AB4-12 (antibody, V domains shown)
VH: QVQLVQSGAEVKKPGASVKMSCKASGYTFTSYTMHWIRQAPGQGQEWIGYINPSSTYTHYIKKFKDRATLTADKSTSTAYMELSSLRSEDTAVYYCSRGELGGFAYWGQGTLVTVSS
VL: DVVMTQSPLSLPVTLGQPASISCRSSQSLVHSDGNTYLNWYQQRPGQSPRLLIYKVSNRFSGVPDRFSGSGSGTDFTLKISRVEAEDVGVYYCSQSTHVPYTFGQGTKLEIK
notes: Humanized; also called Humanized AB 4-12
In the case of B11, the FACS fluorescence is 24200 in assay [2], 86200 in assay [3], 9690 in assay [4] and 71100 in assay [5].

B12: AB4-8 (antibody, V domains shown)
VH: QVQLVQSGAEVKKPGASVKVSCKASGYTFTSYTMHWVRQAPGQGLEWMGYINPSSTYTHYIKKFKDRVTMTADTSTSTVYMELSSLRSEDTAVYYCSRGELGGFAYWGQGTLVTVSS
VL: DVVMTQSPLSLPVTLGQPASISCRSSQSLVHSDGNTYLNWYQQRPGQSPRLLIYKVSNRFSGVPDRFSGSGSGTDFTLKISRVEAEDVGVYYCSQSTHVPYTFGQGTKLEIK
notes: Humanized; also called Humanized AB 4-8
For B12, the FACS fluorescence turned out to be 7310 in assay [2], 77600 in assay [3], 3120 in assay [4] and 49300 in assay [5].

B13: AB4-7 (antibody, V domains shown)
VH: QVQLVQSGAEVKKPGASVKMSCKASGYTFTSYTMHWIRQAPGQGQEWIGYINPSSTYTHYAQKFQGRATLTADKSTSTAYMELSSLRSEDTAVYYCSRGELGGFAYWGQGTLVTVSS
VL: DVVMTQSPLSLPVTLGQPASISCRSSQSLVHSDGNTYLNWYQQRPGQSPRLLIYKVSNRFSGVPDRFSGSGSGTDFTLKISRVEAEDVGVYYCSQSTHVPYTFGQGTKLEIK
notes: also called Humanized AB 4-7
Take B13: the FACS fluorescence was determined as 7560 in assay [2], 33300 in assay [3], 2770 in assay [4] and 19200 in assay [5].
